# Data reported in US20230374526A1, “FORSKOLIN-INDUCIBLE PROMOTERS AND HYPOXIA-INDUCIBLE PROMOTERS” (ASKLEPIOS BIOPHARMACEUTICAL, INC., priority 2020, published 2023).
# Key:
# [1] = tested on: CHO-GS cells; assay: Luciferase expression from hypoxia-inducible promoter, transient transfection, normoxia vs 24 h hypoxia; type: cell-based, chinese hamster; conditions: CHO_GS suspension cell line
# Protocol: 40 ml of cells were grown in a 250 ml vented Erlenmeyer flask (Sigma-Aldrich CLS431144) at 37° C., 20% O2, 8% CO2 with agitation at 100 rpm. Cells were seeded as at 300,000 cells/ml.
# One day before transfection, the cells were counted using a haemocytometer and split to 500,000 cells/ml.
# On the day of transfection, the cells are seeded to 1,000,000 cells/ml in 500 μl of appropriate medium (Thermofisher, CD-CHO 10743029) in a 24 well plate. 0.625 μg of DNA per well was then added to 10 μl of OptiMem medium (Thermofisher; 11058021) and incubated for 5 minutes at room temperature.
# Concurrently, 0.625 μl of Freestyle Max reagent (Thermofisher, 16447100) was made up to 10 μl by addition of OptiMem and incubated for 5 minutes at room temperature. After this incubation, both mixes were added to the same tube and incubated at room temperature for 25-30 minutes. The DNA/Max reagent mix (20 μl/well) was then added directly to the cells and the cells incubated at 37 C, 8% CO2 with agitation at 100 rpm. […]
# After transfection the cells were incubated for 24 hrs in normoxic conditions (20% oxygen). Induction of the promoters was assessed by using luciferase activity after 24 hrs in normoxia or hypoxia (5% oxygen, 10% carbon dioxide and 85% nitrogen). […] Luciferase activity was measured as described above.
# [2] = tested on: CHO-GSK1SV cell line; assay: SEAP expression from hypoxia-inducible promoter in stably integrated cell line, normoxia vs 24 h hypoxia; type: cell-based, chinese hamster; conditions: normalised to cell number
# Protocol: Cell suspensions of 6×10^5 cells per mL are incubated on an orbital shaker set at 8% CO2, 20% O2, 37° C., 85% relative humidity and 140 rpm overnight. 2.86×10^7 cells were centrifuged at 200 g for 3 minutes. Media is then aspirated and cell pellet resuspended in 2 mL fresh CD-CHO media to obtain a concentration of 1.43×10^7 cells per mL. 700 μL of cell suspension was added to each of two electroporation cuvettes each containing […] of linearised DNA in 100 μL of sterile TE buffer (Thermofisher, 12090015). Each cuvette was electroporated, delivering a single pulse of 300V, […] with resistance to infinity. Immediately after delivery of pulse electroplated cells were transferred to Erlenmeyer 125 mL flask containing 20 mL of CD-CHO media pre-warmed to 37° C. […] Cells are transferred to fresh CD-CHO media 24 hours after transfection and cell cultures monitored and given fresh CD-CHO media every 2-4 days. […]
# Stably transfected CHO-GS cells were seeded at 500,000 cells/ml and allowed to grow for 24 hrs, at this point the cells were counted and placed under hypoxic conditions as previously described. After 24 hrs, the cell numbers and the expression of SEAP was measured.
# SEAP Reporter Gene Assay, chemiluminescent (Roche, CAT #11 779 842 001) was used to measured SEAP activity as per manufacturers protocol. […] The signal is then read at 477 nm and compared to a calibration curve. […]
# [3] = tested on: HEK293-T cells; assay: Luciferase expression from hypoxia-inducible promoter, normoxia vs 24 h hypoxia; type: cell-based, human
# Protocol: HEK293-T are seeded at a density of 20%. Once they reached a confluence between 60 and 80%, the media is changed with DMEM (#21885-025—Thermo Scientific) supplemented with 10% FBS (Gibco, 26140). After 3 hours, the cells were transfected by a transfection mix. The transfection mix is prepared by adding DNA (2 μg per 6 well plate) and PEI 25 kDA (#23966-1—Polyscience) in a ratio of 1:3 in sterile DPBS (#14190169—ThermoFisher Scientific). After mixing, the transfection mix is incubated at room temperature for 30 minutes and then added directly to the cells. After 16 to 18 h post transfection, the media is changed to DMEM+2% FBS. […]
# After transfection the cells were incubated for 24 hrs in normoxic conditions (20% oxygen). Induction of the promoters was assessed by using luciferase activity after 24 hrs in normoxia or hypoxia (5% oxygen, 10% carbon dioxide and 85% nitrogen). […]
# Luciferase activity was measured using LARII (Dual Luciferase Reporter 1000 assay system, Promega, E1980).
# Media was removed from the cells at the respective time point (0, 3, 5, 24 hrs after induction). […] 10 μl of supernatant was pipetted into white 96-well plate and luminescence measured by addition of 50 μl of LARII substrate.
# β-galactosidase activity was measured as per manufacturer's instructions (Mammalian βGalactosidase Assay Kit, 75707/75710, Thermo Scientific) using 25 μl of lysate. […]
molecule,measurement,setting,value
"RTV-015: hypoxia-inducible promoter, SEQ ID NO: 129; 5 HRE1 elements spaced by 40 bp spacers, synthetic minimal promoter MP1 (nucleic acid, Synp-RTV-015, 5 HRE1 elements spaced by 40 bp spacers, synthetic minimal promoter MP1) DNA: ACGTGCGATGATGCGTAGCTAGTAGTGATGATGCGTAGCTAGTAGTACGTGCGATGATGCGTAGCTAGTAGTGATGATGCGTAGCTAGTAGTACGTGCGATGATGCGTAGCTAGTAGTGATGATGCGTAGCTAGTAGTACGTGCGATGATGCGTAGCTAGTAGTGATGATGCGTAGCTAGTAGTACGTGCTTGGTACCATCCGGGCCGGCCGCTTAAGCGACGCCTATAAAAAATAGGTTGCATGCTAGGCCTAGCGCTGCCAGTCCATCTTCGCTAGCCTGTGCTGCGTCAGTCCAGCGCTGCGCTGCGTAACGGCCGCC",Luciferase expression after 24 hours in hypoxia (vs normoxia),[1]; 5% oxygen,induced
same,Luciferase activity in normoxia,[1]; 20% oxygen,almost no luciferase activity
same,SEAP activity in normoxia,[2],almost no SEAP activity
same,SEAP expression after 24 hours in hypoxia (vs normoxia),[2],induced
same,Luciferase expression after 24 hours in hypoxia (vs normoxia),[3]; 5% oxygen,induced
same,Luciferase activity in normoxia,[3]; 20% oxygen,almost no luciferase activity
